Measured values from patent US20240325562A1 (LINXIS B V, published 2024).

B1: 13G12 (VHH)
VHH: EVQLVESGGGLVQAGGSLRLSCAASGRAFSISSMSWFRQAPGKERVVVASIAWSGDSTYYADSVQGRFTISKDNAKNTLSLQMNSLKPEDTAVYYCSAYTQVSVNNRYWGQGTQVTVSS
notes: the first entry is used; On phage in the phage ELISA
B2: 13B7 (VHH)
VHH: EVQLVESGGGLVQAGGSLRLSCAASRSISPMGWYRQAPGKQRELVAIMPSSGTPIYADSVQGRFTISRDNAKNTVYLQMNSLKPEDTAVYYCNVGGGYWGQGTQVTVSS
notes: On phage in the phage ELISA; tail applies to the purified protein
B3: 13E5 (VHH)
VHH: EVQLVESGGGLVQAGGSLRLSCAASGLTFSRYTMSWYRQAPGKEREVVAAISSGDSTYHEDSVKGRFIISRDNAKNTVYLQMNSLKTEDTAVYYCRANGPGTYWGQGTQVTVSS
notes: as for B2
B4: 13D11 (VHH)
VHH: EVQLVESGGGLVQAGGSLRLSCAASGSIFSINYMAWYRQAPGKEREVVASMSWRRDSTYLADSVQGRFTISRNNAKNTMYLQMNSLKPEDTALYYCKANDYWGQGTQVTVSS
notes: as for B2
B5: 13F4 (VHH)
VHH: EVQLVESGGGLVQAGGSLRLSCVASGSIFSINYMAWYRQTPGKEREVVASMSRRSDSTYLADAVQGRFTISRNNAGNTMYLQMNSLKPEDTALYYCKANDYWGQGTQVTVSS
notes: as for B2
B6: 13A3 (VHH)
VHH: EVQLVESGGGLVQAGGSLRLSCAASGSIFRLNYMAWYRQAPGKEREVVASMSRRSDSTYLADAVQGRFTISMNNAGNTMYLQMNSLKPEDTALYYCKANDYWGQGTQVTVSS
notes: as for B2
B7: 13A2 (VHH)
VHH: EVQLVESGGGLVQAGGSLRLSCAASGIIFSANTVGWYRQVPGKERDVVASITSGDSTYYGDSVRDRFTISRDNAKNTVYLQMNSLKPDDTAIYYCRARTTDGSYWGQGTQVTVSS
notes: as for B2
B8: 13B12 (VHH)
VHH: EVQLVESGGGLVQAGGSLRLSCAASGIIFGANTVGWYRQVPGKERDVVASITSVDSTYYGDSVRGRFTISRDNAKNTVYLQMNSLKPEDTAIYYCRARTTDGSYWGQGTQVTVSS
notes: as for B2
B9: 13A8 (VHH)
VHH: EVQLVESGGGLVPAGGSLRLSCAASGRTFSNYAMGWFRQAPGKERKFVATISWSGGVTYYADSVKGRFTISRDNAKNTVYLLMNSLKPEDTAVYYCAAKRDSSSYDHRRYDYWGQGTQVTVSS
notes: On phage in the phage ELISA; purified from E. coli in the other assays
B10: SP13P (VHH)
VHH: EVQLVESGGGLVQPGGSLRLSCAASESIFSINYMAWYRQAPGKQRELVAFSIDGSSTNYVDSVRGRFTASRDNAENTLYLQMNSLKPEDTAVYYCYAQGNTWAAGVWGQGTQVTVSS
notes: From libraries 1 and 2 (raised against hPDGFRB)
B11: SP12P (VHH)
VHH: EVQLVESGGGLVQAGGSLRLSCVISGRTSPTYPMGWFRQSPGNEREFVASINWSGGWRNYADSVKGRFTISRDDAKNTVYLQMNSLKPEDTAVYYCARGQYSSGTPVYAHEYAYWGQGTQVTVSS
notes: as for B10
B12: SP20P (VHH)
VHH: EVQLVESGGGLVQAGGSLRLSCVISGRTSPTYPMGWFRQSPGNEREFVASINWSGGWRNYADSVKDRFTISRDDAKNTVYLQMNSLKPEDTAVYYCARGQYSSGTPVYAHEYAYWGQGTQVTVSS
notes: as for B10
B13: SP05P (VHH)
VHH: EVQLVESGGGLVQAGGSLRLSCAASGRTSFSGYAMAWFRQAPGKERDFVASITWSYGYTYYTDSAQGRFTISRDSAKNTVYLEMNSLKPEDTAVYYCAADPKASRFRILREYAYWGQGTQVTVSS
notes: as for B10
B14: SP08P (VHH)
VHH: EVQLVESGGGLVQAGGSLRLSCAASGRTFNGYAMAWFRQAPGKERDFVASITWSYGYTYYADSAQGRFTISRDSAKNTVYLEMNSLKPEDTAVYYCAADPKASRFRILRQYAHWGQGTQVTVSS
notes: as for B10
B15: SP01P (VHH)
VHH: EVQLVESGGGLAQAGGSLRLSCVASGNIDSANGMAWYRQAPGKQRELVAHITSGTSYYVASVEGRFTISRANAKDTWYLQMNSLKPEDTGVYYCFPIGLSAHWSQGTQVTVSS
notes: as for B10
B16: SP02P (VHH)
VHH: EVQLVESGGGLVQAGGSLRLSCAASESISSIEQMGWFRQAPGKQRALVAINTYGGRTVYTNSVEGRFTMSRDSAKNMVYLQMTSLEPEDTAVYYCYAQTTAWRGGVWGQGTQVTVSS
notes: as for B10
B17: SP10P (VHH)
VHH: EVQLVESGGGLVQAGGSLRLSCAASGRTFNGYAMGWFRQAPGKERDFVAAITWSYGYTHYAESVKGRFSISRDSANNMVYLEMNSLKPEDTAVYYCAADPKASRFRTLRRYDYWGQGTQVTVSS
notes: as for B10
B18: SP14P (VHH)
VHH: EVQLVESGGGLVQAGDSLRLSCVVSGLTFSRYGMGWFRQATGKEREFVGGISVGSSGTMYPNSVKGRFTISRDNAKSTVYLQMNSLKPEDTAVYFCAAIDQGSFVQQRDYRYWGQGTQVTVSS
notes: as for B10
B19: SP36P (VHH)
VHH: EVQLVESGGGLVQAGGSLRLSCTPSITTAGTTIMAWFRQAPGNEREFVAAIWGSKTAYGDSMKGRLTISRDNVRDNGQKTVFLQMNNLQLQDTATYYCAASSGGYVHSSTSYEIWGRGTQVTVSS
notes: From libraries 3 and 4 (raised against rPDGFRB)
B20: SP30P (VHH)
VHH: EVQLVESGGGLVQAGGSLRLSCAASRGTFGTDIMGWFRQAPGKEREFVAAISWRGANTYYGYSVKGRFTISRDNAKNTMYLQMADLKPEDTADYYCGVHLNGTPYYYASGYRYWGQGTQVTVSS
notes: as for B19
B21: SP31P (VHH)
VHH: EVQLVESGGGLVQAGGSLRLSCAASRGTFGTYIMGWFRQAPGKEREFVAAISWRGANTYYGYSVKGRFTISRDNAKNTMYLQMADLKPEDTADYYCGVHLNGTPYYYASGYRYWGQGTQVTVSS
notes: as for B19
B22: SP28P (VHH)
VHH: EVQLVESGGGLVQAGGSLRLSCAASGSIVSFNGINWYRQAPGKQREWVGGITQGGNTMYADSVRGRFTISRDNTKNTMYLQMNSLKPEDTAVYYCRRPPVASWGQGTQVTVSS
notes: as for B19
B23: SP27P (VHH)
VHH: EVQLVESGGGLVQIGDSLRLSCAASGGTFNRYGMGWFRQAPGKEREFVAAIRWDGVDTNYADFVKGRFTISRYNAKNTAYLQMNSLKPEDTAVYYCAADRRGLYTKHAHRYDYWGQGTQVTVSS
notes: as for B19
B24: 13F11-13F11-A647 (VHH)
chain: EVQLVESGGRLVQPGDSLRLSCAASGRTFSDNAMGWFRQAPGKERRFVAGISWAGGSTYYSDSVKGRFTISRDNAKNTVYLQMNSLKPEDTAVYYCAAGLRAWVQRMPKDYNYWGQGTQVTVSSGGGGSGGGGSGGGGSEVQLVESGGRLVQPGDSLRLSCAASGRTFSDNAMGWFRQAPGKERRFVAGISWAGGSTYYSDSVKGRFTISRDNAKNTVYLQMNSLKPEDTAVYYCAAGLRAWVQRMPKDYNYWGQGTQVTVSS
modifications: Alexa Fluor 647 coupled by maleimide to the C-terminal free cysteine, which is not in the letters
notes: Bivalent tandem VHH; not shown: C-terminal tail: free Cys, possible thrombin site and His6 tag

Target: T1, recombinant human extracellular domain of IGF2R (human, UniProt P11717 41-2304)
T1 construct: extracellular domain; Recombinant, immobilized on plates; also called hIGF2R-ECD; human IGF2R ectodomain (ECD)
Assay: phage ELISA on hIGF2R-ECD
Method: After the second selection round, 94 phage clones were randomly picked and assessed for binding to hIGF2R-ECD in a phage ELISA. Clones showing affinity were analyzed by restriction enzyme analysis using Hinfl and then categorized according to their restriction pattern. From each category, multiple clones were selected, and the amino acid sequences of these binders were identified (Table 2).

**Q.** Does B1 bind?
**A.** binds

**Q.** Does B2 bind?
**A.** binds

**Q.** Does B3 bind?
**A.** binds

**Q.** Does B4 bind?
**A.** binds

**Q.** Does B5 bind?
**A.** binds

**Q.** Does B6 bind?
**A.** binds

**Q.** Does B7 bind?
**A.** binds

**Q.** Does B8 bind?
**A.** binds

**Q.** Does B9 bind?
**A.** binds

Target: T2, recombinant hPDGFRB ectodomain (human, UniProt P09619 33-532)
T2 construct: extracellular domain; also called hPDGFRB-ECD; human PDGFRB ECD
T2 sequence (P09619 33-532): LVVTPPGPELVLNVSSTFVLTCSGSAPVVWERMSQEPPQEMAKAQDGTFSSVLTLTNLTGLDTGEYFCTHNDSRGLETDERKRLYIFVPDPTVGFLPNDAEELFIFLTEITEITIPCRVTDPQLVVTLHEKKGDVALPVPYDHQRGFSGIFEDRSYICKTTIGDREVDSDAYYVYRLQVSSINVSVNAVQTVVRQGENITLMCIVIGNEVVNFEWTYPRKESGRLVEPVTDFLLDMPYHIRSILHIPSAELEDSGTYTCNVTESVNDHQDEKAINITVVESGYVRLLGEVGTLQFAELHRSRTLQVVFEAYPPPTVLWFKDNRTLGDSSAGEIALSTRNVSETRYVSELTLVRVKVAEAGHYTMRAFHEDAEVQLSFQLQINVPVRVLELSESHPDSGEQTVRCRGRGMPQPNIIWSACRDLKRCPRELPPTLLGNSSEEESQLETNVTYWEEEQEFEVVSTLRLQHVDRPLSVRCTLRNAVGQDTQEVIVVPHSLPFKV
Assay: phage ELISA and binding assay on hPDGFRB-ECD; values only in FIG. 5

**Q.** Does B10 bind?
**A.** binds

**Q.** Does B11 bind?
**A.** binds

**Q.** Does B12 bind?
**A.** binds

**Q.** Does B13 bind?
**A.** binds

**Q.** Does B14 bind?
**A.** binds

**Q.** Does B15 bind?
**A.** binds

**Q.** Does B16 bind?
**A.** binds

**Q.** Does B17 bind?
**A.** binds

**Q.** Does B18 bind?
**A.** binds

Target: T3, recombinant rPDGFRB ectodomain (rat, UniProt Q05030 32-531)
T3 construct: extracellular domain; also called rPDGFRB-ECD; rat PDGFRB ECD
T3 sequence (looked up): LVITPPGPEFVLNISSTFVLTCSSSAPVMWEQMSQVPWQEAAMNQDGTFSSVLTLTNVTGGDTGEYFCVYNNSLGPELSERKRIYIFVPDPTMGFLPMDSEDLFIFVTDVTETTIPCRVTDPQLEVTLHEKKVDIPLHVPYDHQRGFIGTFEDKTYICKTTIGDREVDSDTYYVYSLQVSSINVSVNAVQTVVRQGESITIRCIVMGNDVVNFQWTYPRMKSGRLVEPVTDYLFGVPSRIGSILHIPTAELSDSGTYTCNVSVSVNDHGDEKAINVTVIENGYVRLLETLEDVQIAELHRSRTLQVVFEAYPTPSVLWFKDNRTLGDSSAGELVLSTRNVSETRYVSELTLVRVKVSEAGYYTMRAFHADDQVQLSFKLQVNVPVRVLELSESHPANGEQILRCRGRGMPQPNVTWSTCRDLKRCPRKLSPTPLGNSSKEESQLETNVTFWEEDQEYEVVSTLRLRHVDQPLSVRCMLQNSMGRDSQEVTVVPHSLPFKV
Assay: phage ELISA and binding assay on rPDGFRB-ECD; values only in FIG. 6

**Q.** Does B19 bind?
**A.** binds

**Q.** Does B20 bind?
**A.** binds

**Q.** Does B21 bind?
**A.** binds

**Q.** Does B22 bind?
**A.** binds

**Q.** Does B23 bind?
**A.** binds

Target: T1, recombinant human extracellular domain …
Assay: direct binding assay of the Alexa Fluor 647 conjugate on hIGF2R-ECD, one-site specific binding fit
Method: These conjugates were then subjected to direct binding assays on immobilized hIGF2R-ECD, meaning that plates were read out immediately after washing, without additional detection steps. […] For detailed analysis, binding parameters KD and Bₘₐₓ were calculated in Graphpad (version 8.3), using one-site specific binding analysis (FIG. 8D).
Based on their high affinity and binding to non-overlapping receptor epitopes, VHHs 13F11 and 13E8 were selected for the design of biparatopic and bivalent VHH constructs. Two VHHs were fused with a flexible linker, consisting of three Gly-Gly-Gly-Gly-Ser repeats (FIG. 8A). The sequences were codon optimized for expression in E. coli and obtained as synthesized DNA fragments from GeneArt. The DNA fragments encoding VHHs were cloned into a vector pET28-based vector introducing a C-terminal free cysteine for site-directed conjugation and His6 tag for IMAC purification (FIG. 8A). The VHH constructs were produced and purified as described in example 4. […] In a similar binding assay, IR dye 800 (IRD800) conjugates were prepared (as outlined in example 10.2) of the monomeric VHHs 13F11 and 13E8, the biparatopic VHH construct 13F11-13E8, the reciprocal biparatopic construct 13E8-13F11, the bivalent VHH construct 13F11-13F11, and the non-binding (control-) VHH R2. Conjugated constructs were then subjected to binding assay as described above.

**Q.** For B24, which Kd is on record?
**A.** 3.1 nM
